Reference: US20210214440A1

Target: CD3 (UniProt P07766)
Assay: method and format not stated

B1: CD3B450 (antibody, V domains shown)
VH: QVQLQQSGPGLVKPSQTLSLTCAISGDSVFNNNAAWSWIRQSPSRGLEWLGRTYYRSKWLYDYAVSVKSRITINPDTSKNQFSLQLNSVTPEDTAVYYCARGYSSSFDYWGQGTLVTVSS
VL: QSALTQPASVSGSPGQSITISCTGTSSNIGTYKFVSWYQQHPGKAPKVMIYEVSKRPSGVSNRFSGSKSGNTASLTISGLQAEDEADYYCVSYAGSGTLLFGGGTKLTVL
B1 showed a Kd of 80 nM.
